This is an account of results in the supplement of paper PMC9112550, “Optimization of the antimicrobial peptide Bac7 by deep mutational scanning” (BMC Biology, 2022).
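Note: peptides expressed intracellularly from a pBAD plasmid library in pooled LB shake-flask culture, induced with 0.3% L-arabinose, DNA abundance read by NGS, three biological replicates, DESeq2 with apeglm shrinkage.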

The test system of the series is Escherichia coli TOP10. The experiment in a line: shrunken log2 fold change of peptide-encoding DNA abundance (4.5 h post-induction vs induction); higher = less antimicrobial activity (less host growth inhibition). As to conditions: time post-induction: 4.5 h; library: site-saturation at positions 5, 18, 19, 20.
Regarding RRIRGRPPRLPRPRPRPWPAPRP, the “shrunken log2 fold change” value came to 0.763.

For RRIRQRPPRLPRPRPRPWMRPRP, the “shrunken log2 fold change” value worked out at 0.131.

With RRIRFRPPRLPRPRPRPIDCPRP, the “shrunken log2 fold change” value is -0.046.

On to RRIRQRPPRLPRPRPRPSENPRP, for which the “shrunken log2 fold change” value was -0.0264.

Consider RRIRNRPPRLPRPRPRPHNFPRP, for which the “shrunken log2 fold change” value was -0.436.

For the sequence RRIRWRPPRLPRPRPRPVAHPRP, the “shrunken log2 fold change” value worked out at 0.00472.

In the case of RRIRCRPPRLPRPRPRPREWPRP, the “shrunken log2 fold change” value was -0.0656.

Take RRIRLRPPRLPRPRPRPIPTPRP: the “shrunken log2 fold change” value is -0.105.

As for RRIRNRPPRLPRPRPRPAPTPRP, the “shrunken log2 fold change” value came out at 0.809.

On to RRIRHRPPRLPRPRPRPVETPRP, for which the “shrunken log2 fold change” value was found to be 0.0401.

With RRIRTRPPRLPRPRPRPEEIPRP, the “shrunken log2 fold change” value was 0.0464.

With RRIRYRPPRLPRPRPRPLGFPRP, the “shrunken log2 fold change” value is -0.662.

RRIRERPPRLPRPRPRPQHYPRP: the “shrunken log2 fold change” value was -0.398.

With RRIRERPPRLPRPRPRPPCNPRP, the “shrunken log2 fold change” value was -0.392.

In the case of RRIRGRPPRLPRPRPRPTGDPRP, the “shrunken log2 fold change” value came out at 0.782.

Regarding RRIRCRPPRLPRPRPRPMCNPRP, the “shrunken log2 fold change” value is -0.378.

RRIRVRPPRLPRPRPRPWLGPRP: the “shrunken log2 fold change” value was -0.0696.

Regarding RRIRWRPPRLPRPRPRPYSHPRP, the “shrunken log2 fold change” value was -1.09.

Take RRIRLRPPRLPRPRPRPLRIPRP: the “shrunken log2 fold change” value is -0.031.

Regarding RRIRERPPRLPRPRPRPHCWPRP, the “shrunken log2 fold change” value is -0.0487.

Consider RRIRFRPPRLPRPRPRPSRNPRP, for which the “shrunken log2 fold change” value is -0.346.

RRIRHRPPRLPRPRPRPMCMPRP: the “shrunken log2 fold change” value came to 0.201.

For RRIRLRPPRLPRPRPRPAYMPRP, the “shrunken log2 fold change” value is -0.275.

In the case of RRIRVRPPRLPRPRPRPLGQPRP, the “shrunken log2 fold change” value stood at 0.131.

As to RRIRRRPPRLPRPRPRPKCCPRP, the “shrunken log2 fold change” value came out at 0.00261.

With RRIRCRPPRLPRPRPRPHILPRP, the “shrunken log2 fold change” value is -0.476.

On to RRIRPRPPRLPRPRPRPQKIPRP, for which the “shrunken log2 fold change” value is -0.267.

RRIRIRPPRLPRPRPRPIRIPRP: the “shrunken log2 fold change” value was found to be 0.0736.

Regarding RRIRCRPPRLPRPRPRPHSPPRP, the “shrunken log2 fold change” value was -0.422.

Take RRIRKRPPRLPRPRPRPFGEPRP: the “shrunken log2 fold change” value worked out at 0.365.

As for RRIRGRPPRLPRPRPRPVRMPRP, the “shrunken log2 fold change” value worked out at 0.963.

With RRIRSRPPRLPRPRPRPGQPPRP, the “shrunken log2 fold change” value is 0.214.

For RRIRPRPPRLPRPRPRPIYEPRP, the “shrunken log2 fold change” value is -0.0945.

RRIRWRPPRLPRPRPRPYMPPRP: the “shrunken log2 fold change” value was -0.695.

As for RRIRDRPPRLPRPRPRPMGMPRP, the “shrunken log2 fold change” value was -0.069.

As for RRIRQRPPRLPRPRPRPEEPPRP, the “shrunken log2 fold change” value worked out at 0.0685.

On to RRIRTRPPRLPRPRPRPWHYPRP, for which the “shrunken log2 fold change” value is -0.268.

For RRIRQRPPRLPRPRPRPQDTPRP, the “shrunken log2 fold change” value is -0.555.

Consider RRIRTRPPRLPRPRPRPQAHPRP, for which the “shrunken log2 fold change” value was -0.452.

RRIRVRPPRLPRPRPRPCNHPRP: the “shrunken log2 fold change” value was -0.588.

RRIRRRPPRLPRPRPRPSRKPRP: the “shrunken log2 fold change” value turned out to be 0.129.

For the sequence RRIRIRPPRLPRPRPRPYNVPRP, the “shrunken log2 fold change” value is -0.291.

In the case of RRIRKRPPRLPRPRPRPHIIPRP, the “shrunken log2 fold change” value is 0.0119.

RRIRQRPPRLPRPRPRPKGDPRP: the “shrunken log2 fold change” value was 0.00911.

Consider RRIRQRPPRLPRPRPRPVFMPRP, for which the “shrunken log2 fold change” value is -0.155.

For RRIRHRPPRLPRPRPRPCKGPRP, the “shrunken log2 fold change” value is -0.0269.

Consider RRIRIRPPRLPRPRPRPFYYPRP, for which the “shrunken log2 fold change” value was -0.667.

Take RRIRWRPPRLPRPRPRPKTWPRP: the “shrunken log2 fold change” value was found to be 0.325.

For the sequence RRIRLRPPRLPRPRPRPADSPRP, the “shrunken log2 fold change” value was -0.182.

Take RRIRWRPPRLPRPRPRPNTWPRP: the “shrunken log2 fold change” value was found to be 0.245.

As for RRIRSRPPRLPRPRPRPPNGPRP, the “shrunken log2 fold change” value amounted to 0.36.

With RRIRQRPPRLPRPRPRPPKQPRP, the “shrunken log2 fold change” value was -0.0279.

On to RRIRCRPPRLPRPRPRPRALPRP, for which the “shrunken log2 fold change” value was 0.113.

For RRIRCRPPRLPRPRPRPEHKPRP, the “shrunken log2 fold change” value was -0.221.

Consider RRIRFRPPRLPRPRPRPKMGPRP, for which the “shrunken log2 fold change” value was -0.122.

In the case of RRIRMRPPRLPRPRPRPPEWPRP, the “shrunken log2 fold change” value is 0.5.

In the case of RRIRARPPRLPRPRPRPQVFPRP, the “shrunken log2 fold change” value is 0.278.

Take RRIRCRPPRLPRPRPRPQEFPRP: the “shrunken log2 fold change” value was -0.366.

RRIRSRPPRLPRPRPRPDDLPRP: the “shrunken log2 fold change” value was found to be 0.0166.

On to RRIRHRPPRLPRPRPRPGMHPRP, for which the “shrunken log2 fold change” value is -0.01.

As for RRIRQRPPRLPRPRPRPTYQPRP, the “shrunken log2 fold change” value is -0.109.

Consider RRIRCRPPRLPRPRPRPPTHPRP, for which the “shrunken log2 fold change” value was 0.172.

As for RRIRRRPPRLPRPRPRPESQPRP, the “shrunken log2 fold change” value amounted to 0.303.

Regarding RRIRPRPPRLPRPRPRPLMPPRP, the “shrunken log2 fold change” value was -0.188.

RRIRVRPPRLPRPRPRPYSIPRP: the “shrunken log2 fold change” value was determined as 0.0569.

In the case of RRIRMRPPRLPRPRPRPMIIPRP, the “shrunken log2 fold change” value is -0.117.

Regarding RRIRDRPPRLPRPRPRPMIHPRP, the “shrunken log2 fold change” value turned out to be 0.318.

Consider RRIRCRPPRLPRPRPRPPWTPRP, for which the “shrunken log2 fold change” value is 0.224.

With RRIRFRPPRLPRPRPRPMRYPRP, the “shrunken log2 fold change” value amounted to 0.0824.

With RRIRCRPPRLPRPRPRPIFKPRP, the “shrunken log2 fold change” value was -0.323.

In the case of RRIRIRPPRLPRPRPRPWCWPRP, the “shrunken log2 fold change” value is -0.146.

Consider RRIRKRPPRLPRPRPRPPIFPRP, for which the “shrunken log2 fold change” value is 0.269.

On to RRIRDRPPRLPRPRPRPNDKPRP, for which the “shrunken log2 fold change” value is -0.555.

Regarding RRIRTRPPRLPRPRPRPYKAPRP, the “shrunken log2 fold change” value was -1.77.

For the sequence RRIRTRPPRLPRPRPRPCFNPRP, the “shrunken log2 fold change” value is -0.667.

RRIRPRPPRLPRPRPRPKDDPRP: the “shrunken log2 fold change” value was -0.0737.

Turning to RRIRSRPPRLPRPRPRPKGTPRP, the “shrunken log2 fold change” value is -0.237.

As to RRIRHRPPRLPRPRPRPSTAPRP, the “shrunken log2 fold change” value is -0.24.

On to RRIRARPPRLPRPRPRPNQRPRP, for which the “shrunken log2 fold change” value is 0.532.

Turning to RRIRFRPPRLPRPRPRPNAPPRP, the “shrunken log2 fold change” value amounted to 0.0925.

Take RRIRKRPPRLPRPRPRPVMCPRP: the “shrunken log2 fold change” value is 0.0989.

Take RRIRMRPPRLPRPRPRPSCMPRP: the “shrunken log2 fold change” value is -0.0641.

Consider RRIRCRPPRLPRPRPRPAAGPRP, for which the “shrunken log2 fold change” value came out at 0.378.

In the case of RRIRARPPRLPRPRPRPTVIPRP, the “shrunken log2 fold change” value was 0.0535.

RRIRGRPPRLPRPRPRPESWPRP: the “shrunken log2 fold change” value amounted to 1.7.

For RRIRRRPPRLPRPRPRPCNVPRP, the “shrunken log2 fold change” value is 0.0391.

As for RRIRYRPPRLPRPRPRPWYAPRP, the “shrunken log2 fold change” value was -1.43.

Consider RRIRIRPPRLPRPRPRPHIWPRP, for which the “shrunken log2 fold change” value was -0.582.

In the case of RRIRNRPPRLPRPRPRPRECPRP, the “shrunken log2 fold change” value is 0.0263.

On to RRIRWRPPRLPRPRPRPEQDPRP, for which the “shrunken log2 fold change” value is -0.0232.

Turning to RRIRCRPPRLPRPRPRPESDPRP, the “shrunken log2 fold change” value is 0.242.
